Our source for the protein stability index values is the supplement of paper PMC9732359.

± gives the uncertainty stated by the source.

A short description of this data set: protein stability index of a GFP-peptide fusion (yeast GPS) (PSI 1-4); higher = more stable; sorted into four equal gates, so the index is relative within each strain. The method in brief:
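Tiled 17-residue yeast protein peptides were fused downstream of GFP in a plasmid that also expresses Cherry, and the pooled library was carried in yeast. Mid-log cultures in leucine-free medium were sorted into four equal gates by GFP/Cherry fluorescence ratio, and plasmids from each gate were PCR-amplified and Illumina-sequenced, with reads assigned to strains by barcodes. The protein stability index for each peptide was each gate's read frequency times its gate number, summed.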

Sequence LGFEVKDQALIGTINSI [SIR2] displayed a protein stability index (doa10∆) of 2.12 ± 0.051, a protein stability index (pdr5∆) of 2.48 ± 0.062, a protein stability index (san1∆) of 2.27 ± 0.054 and a protein stability index (ubr1∆) of 2.35 ± 0.073.

With LGLEYIIRLLPINLENN [SRB8], the protein stability index was 1.67 ± 0.07 (doa10∆), 1.33 ± 0.058 (pdr5∆), 1.24 ± 0.096 (san1∆) and 1.39 ± 0.061 (ubr1∆).

Take LGPRGVSITPGKIEKIA [SRP21]: the protein stability index came out at 2.02 ± 0.065 (doa10∆), 2.62 ± 0.049 (pdr5∆), 1.98 ± 0.088 (san1∆) and 2.41 ± 0.039 (ubr1∆).

With LGQLYVTMGAKDKLREF [RPN6], the protein stability index worked out at 3.33 ± 0.12 (doa10∆), 3.13 ± 0.11 (pdr5∆), 3.08 ± 0.078 (san1∆) and 3.12 ± 0.069 (ubr1∆).

For LGSHSSSQKDGNDFKFN [REC8], the protein stability index runs as follows: (doa10∆) 3.25 ± 0.07; (pdr5∆) 3.24 ± 0.063; (san1∆) 2.91 ± 0.081; (ubr1∆) 3.22 ± 0.057.

With LGVPRIKEIINASKVIS [RPO31], the protein stability index reads like this: (doa10∆) 3.03 ± 0.1; (pdr5∆) 2.59 ± 0.2; (san1∆) 1.49 ± 0.12; (ubr1∆) 1.71 ± 0.24.

Turning to LHKRLHGVSFKKRAPRA [RPL31A], the protein stability index turned out to be 2.9 ± 0.12 (doa10∆), 2.73 ± 0.13 (pdr5∆), 3 ± 0.16 (san1∆) and 3.17 ± 0.11 (ubr1∆).

Regarding LHLANEHGLQITHTENY [BRN1], the protein stability index by setting is: (doa10∆) 2.71 ± 0.13; (pdr5∆) 2.79 ± 0.13; (san1∆) 2.68 ± 0.15; (ubr1∆) 2.76 ± 0.068.

As to LIALSLIMALLQFRPAP [SMC2], the protein stability index is 1.62 ± 0.029 (doa10∆), 1.3 ± 0.026 (pdr5∆), 1.36 ± 0.048 (san1∆) and 1.3 ± 0.025 (ubr1∆).

Turning to LIARRDDESPRFVMPNQ [RRP6], the protein stability index is, setting by setting: (doa10∆) 3.27 ± 0.082; (pdr5∆) 3.32 ± 0.07; (san1∆) 3.21 ± 0.081; (ubr1∆) 3.21 ± 0.061.

Turning to LICSIGLHSSEYKLRSL [ECM29], the protein stability index reads like this: (doa10∆) 2.03 ± 0.046; (pdr5∆) 2.41 ± 0.05; (san1∆) 2.26 ± 0.07; (ubr1∆) 2.56 ± 0.038.

For the sequence LIEILRLRALQLYFQKN [RRI2], the protein stability index runs as follows: (doa10∆) 1.17 ± 0.049; (pdr5∆) 1.28 ± 0.072; (san1∆) 1.26 ± 0.12; (ubr1∆) 1.04 ± 0.076.

As for LIEKEIQPKITELKKKL [SMC1], the protein stability index was determined as 3.02 ± 0.1 (doa10∆), 2.91 ± 0.089 (pdr5∆), 2.9 ± 0.11 (san1∆) and 3.02 ± 0.077 (ubr1∆).

For the sequence LIENCKKRNMPLQSIPE [SWI1], the protein stability index reads like this: (doa10∆) 2.86 ± 0.068; (pdr5∆) 2.86 ± 0.056; (san1∆) 3.01 ± 0.051; (ubr1∆) 3.05 ± 0.046.

Turning to LIEPLPTESYLQYIIHD [BRR2], the protein stability index is 2.42 ± 0.083 (doa10∆), 2.96 ± 0.065 (pdr5∆), 2.58 ± 0.096 (san1∆) and 2.49 ± 0.049 (ubr1∆).

With LIESGIGTHHAGLTRSD [BRR2], the protein stability index runs as follows: (doa10∆) 3.31 ± 0.095; (pdr5∆) 3.5 ± 0.13; (san1∆) 2.82 ± 0.1; (ubr1∆) 3.43 ± 0.062.

On to LIIIAANTPVLRKSELE [RPL30], for which the protein stability index (doa10∆) was found to be 2.2 ± 0.11, the protein stability index (pdr5∆) was 2.68 ± 0.14, the protein stability index (san1∆) was 2.31 ± 0.094 and the protein stability index (ubr1∆) was determined as 2.77 ± 0.13.

Consider LIIKYQKYWESMRIQIL [GAL11], for which the protein stability index stood at 1.49 ± 0.064 (doa10∆), 1.95 ± 0.076 (pdr5∆), 1.71 ± 0.087 (san1∆) and 1.65 ± 0.06 (ubr1∆).

For the sequence LINDSYINDVHLLYPPH [SSN8], the protein stability index was 3.29 ± 0.058 (doa10∆), 3.14 ± 0.057 (pdr5∆), 2.96 ± 0.045 (san1∆) and 3.25 ± 0.053 (ubr1∆).
